# Results from patent publication US20230302083A1, “HIGHLY-NETWORKED C[…] COMPOSITION” (priority 2020, published 2023).
# Biological target: HLA-A*0301 (human)
row,Binder,HLA-A*0301 stabilization relative to HIV RK9 [%]
1,GNYQCGHYK (modifications not checked),> 50
2,KGIYQTSNFR (modifications not checked),> 50
3,VMCGGSLYVK (modifications not checked),> 50
4,RVIHFGAGSDK (modifications not checked),> 50
